This data set is described as follows: yeast display, Sf9 membrane polyspecificity reagent, FACS + sequencing; frameworks hold sequencing errors. An outline of the steps:
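Using colony PCR, genes from sorted yeast display clones were amplified, then sequenced on MiSeq at 2 × 250 and filtered by CDR length. The clones had been stained with 10% biotinylated, detergent-solubilized Sf9 membrane reagent for 1 hour at 4 °C and sorted by FACS into low and high (top ~1%) gates on anti-HA and streptavidin fluorescence. Polyreactivity labels come from the gate of origin.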
Turning to “QVQLVESGGGLVQAGGSLRLSCAASGSIFQYYVMGWYRQAPGKERELVAAISQSGGRTYYADSVKGRFTISRDNAKNTVYLQMNSLKPEDTAVYYCAADSRNAEYDYWGQGTQVTVSS”, the “polyreactivity (PSR sort gate)” value was “high polyreactivity”.
The result for “QVQLVESGGGLVQAGGSLRLSCAASGFIFSKNAMGWYRQAPGKERELVARITRRVGSTYYADSVKGRFTISRDNAKITVYLQMNSLKPEDTAVYYWAAVVHIQRSTRDYWGQGTQVTVSS” reads “high polyreactivity”; that for “QVQLVESGGGLVQAGGSLRLSCAASGNTFREYTMGWYRQAPGKERELVAGISGSGGRTYYADSVKGRFTISRDNAKNTVYLQMNSLKPEDTAVYYCYARWYYGIGYNYWGQGTQVTVSS”, “high polyreactivity”.
The result for “QVQLVESGGGLVQAGGSLRLSCAASGIIFYRYAMGWYRQAPGKERELVAAITWRGGSPYYADSVKGRFTISRDNAKNTVYLQMNSLKPEDTAVYYCAAESYWTATYTFDYWGQGTQVTVSS” reads “high polyreactivity”; that for “QVQLVESGGGLVQAGGSLRLSCAASGSTFVYYVMGWYRQAPGKERELVAAISWSDDSTYYADSVKGRFTISRDNAKNTVYLQMNSLKAEDTAVYYCAATGYPFYTSGDIEYYYWGQGTQVTVSS”, “low polyreactivity”; that for “QVQLVESGGGLVQAGGSLRLSCAASGSTFGTYAMGWYRQAPGKERELVASIDNSTSGTYYADSVKGRFTISRDNAKNTVYLQMNSLKPEDTAVYYCAATPLVDGSSIPREGDYWGQGTQVTVSS”, “low polyreactivity”.
“QVQLVESGGGLVQAGGSLRLSCAASGSTFGGYAKGWYRQAPGKERELVAAISGSGVRTYYADSVKGRFTISRDNAKNTVYLQMNSLKPEDTAVYYCAKRVRYPGDRYYYWGQGTQVTVSS”: the “polyreactivity (PSR sort gate)” value was “high polyreactivity”.
As for “QVQLVESGGGLVQAGGSLRLSCAPSGNIFAINALGWYRQAPGKESELVATITGGGGSTSYADSVKGRFTISRDNAKNTVYLQMNSLKPEDTAVYSCAADTVYYYGEWYDYWNYVWFDYWGQGTQVTVSS”, the “polyreactivity (PSR sort gate)” value was “low polyreactivity”.
The result for “QVQLEDSGGGLVQAGGSLRLSCAASGFTFGVYAMGWYRQAPGKQRELVAAITSGGGRTYADSVKWRFTISRDNAKNTVYLQMNSLKPEDTAVYYCAAEGVPLRVVWDYSYWDYDYDYWGQGTQVTVSS” reads “low polyreactivity”; that for “QVQLVESGGGLVQAGGSLRLSCAASGRTFDRYAMGWYRQAPGKERELVAAITWSGGRTYYADSVKGRFTISRDNAKNTVYLQMNSLKPEDTAVYYCAADDPRDHWYTAMDYWGQGTQVTVSS”, “low polyreactivity”; that for “QVQLVESGGGLVQAGGSLRLSGAASGRTFGVYVMGWYRQAPGKERELVAAIDDSGGSTYYADSVKGRFTISRDNAKNTVYLQMNSLKPEDTAVYYCAADFYVVYWGTYSVGYDYWGQGTQVTVSS”, “low polyreactivity”.
The result for “QVQLVESGGGLVQAGGSLSLSCAASGSIFAAYTMGWYRQAPGQDRELVAAITSGGTYADSVKGRFTISRDNAKYSVYLQKNSLQPEVTAVYYCYAGNNVVVDYDYWGQGTQVTVSS” reads “low polyreactivity”; that for “QVQLVESGGGLVQAGGSLRLSCAASGRIFSHYAMGWYRQAPGKERELVAAITWSGGRTYYADSVKGRFTISRDNAKNTVYLQMNSLKPEDTAVYYCNAYPSSSLFDYWGQGTQVTVSS”, “low polyreactivity”.
Take “QVQLVESGGGLVQAGGSLRLSCAASGSIFDLYDMGWYRQAPGKERELVAAISLIGGSTSYADSVKGRFTISRDNAKNTVYLQMNSLKPEDTAVYYCAVEKFFRAEYDHWGQGTQVTVSS”: the “polyreactivity (PSR sort gate)” value was “low polyreactivity”.
The result for “QVQLVESGGGLVQAGGSLRLSCAASGLIFPRYAMGWYRQAPGKERELVAAITRGGSTYYADSVKGRFTISRDNAKNTVYLQMNSLKPEDTAVYYCNAELPVHWSWYDYWGQGTQVTVSS” reads “low polyreactivity”.
The result for “QVQLVDSGGGLVQAGGSLRLTCAASGKIFVPNAMGWNRQAPGKERELVAAIRRGGSTNYADSVKGRFTISRDNAKNSVYLQMNSLKPEDTAVYYCAKSRVSFTDLVGYYWGQGTQVTVSS” reads “low polyreactivity”; that for “QVQLVESGGGLVQAGGSLRLSCAASGLTFRWYAMGWYRQAPGKERELVAAISSGGSTNYADSVKGRFTISRDNAKNTVYLQMNSLKPEDTAVDYCNAKGRPWFKYDYWGQGTQVTVSS”, “high polyreactivity”.
The result for “QVQLVESRGGLVQAGCSLRLRCAASGYIFYGYDKGWYRPAPGKERELVAGITYSGGGGTHYADSVKGRFTISRDNAKNTVYLQMNSLKQEDRGVYYCAKADPQLNRTYYSYGMDSWGQGTQVTVSS” reads “low polyreactivity”; that for “QVQLVESGGGLVQAGGSLRLSCAASGFILYSYAMGWYRQAPGKERELVAGISIGGITNYADSVKGRFTISRDNAKNTVYLQMNSLKPEDTAVYYCATDGTTYIWDGDYWGQGTQVTVSS”, “low polyreactivity”; that for “QVQLVESGRGLVQAGGSLRLSCAASGFIFYSNAMGWYRQAPGKERELVAAISRGGGSTYFADSLKGRFTISRDNAKNTVYLQMNSLKPEDTAVYYCAKRRLSPQDDYWGQGTQVTVSS”, “high polyreactivity”.
As for “QVQLVEAGGGLVQAGGSLRLSCAASGRIFRTYAMGWYRQAPGKESELVAAINISGDRTYYADSVKGRFTISRDHAKNTVYLQMNSLKPEDTAVYYCAAAGYRYWGAIYYWGQGTQVTVSS”, the “polyreactivity (PSR sort gate)” value is “high polyreactivity”.
“QVQLEESGGGLVQAGGSLRLSCAASGRIFYLNAMGWYRQAHGKERDLVAAITRSAASTHYADSVKGRFTISRDNAKNTVYLQLNSLKPEDTAVYYCAARFWYDYRHYDYWGQGTQVSVSS”: the “polyreactivity (PSR sort gate)” value is listed as “low polyreactivity”.
For the sequence “QVQLVESGGGLVQAGGSLRLSCAASGSTFWYYTMGWYRQAPGKERELVAAITESGGGTYYADSVKGRFTISRDNAKNTVYLQMNSLKPEDTAVYYCAAYSRFTSDYWGQGTQVTVSS”, the “polyreactivity (PSR sort gate)” value is “high polyreactivity”.
The result for “QVQLVESGGGLVQAGGSLSLSCAASGRTFASNAIGWYRQAPGKERELVAAISSAGGTNYADSVKGRFTISRDNAKNTVYLQMISLKPEDTAVYYCAAASPYYSYHRYIYYYWGQGTQVTVSS” reads “high polyreactivity”.
The result for “QVQLVESGGGLVQAGGSLRFSCAASGRTFYVYALGWYRQAPGKERELVARIRGRGGITFYADSVKGRFTISRDNAKNTVYLQMNSLKPEDTAVYYCAADFRSNYDYWGQGTQVTVAS” reads “high polyreactivity”; that for “QVQHVESGGGLVQAGVSLRLSCAASGFTFYNYAMGWYRQAPGKERELVAAITSSGTSTYYADSVKGRFTISRDNAKNTVYLQMNSLKPEDTAVYYCNAVSSYYYSYDYWGQGTQVTVSS”, “low polyreactivity”.
The result for “QVQLVESGGGLVQAGGSLRLSSAASGFIFAIYSMGWYRQAPGKERELVAAISRSGGRTYYADSVKGRFTISRDIAKNTVYLQMISLKPEDTAVYYCNARFQYRGVKYYYWGKGTQVTVSS” reads “high polyreactivity”; that for “QVQLVESGGGLVQAGGSLRLICAASGRTFRYNAMGWYRQAPGKERELVAAITLGASRTYYADSVKGRFTISRDNAKNTVYLQMNSLKPEDTAVYYCNAVGRRNVDSSLNDYWGQGTQVTVSS”, “low polyreactivity”.
Consider “QVQLVESGGGLVQAGGSLRLSCAAYGPTFRYNTMGWNRQAPGKERELDARITWSGGSTYYADSVKGRFTISRDNAKNTVYLQMNSLKPEDTAVYYCAAVPILVYRWFQSYTGDYDYWGQGTHVTVSS”, for which the “polyreactivity (PSR sort gate)” value is given as “low polyreactivity”.
The result for “QVQLVESGGGLVHAGGSLRLSCAAYGRTYGTNAMGWYRQAPVKERELVAAIRRGGSRTYYADSVKGRFTISRDYAKNTVYLPMNSLKPEDTAVYYCAAKLRAYVDPFEYWGQGTQVTVSS” reads “low polyreactivity”; that for “QVQLQVSGGDLVQAGGSLRLSCAASGTINGLTSMGWYRQAPGKEREFVAAITDGGYTNYADSVKGRFTISRDNAKNTVYLQMISLKPEDTAVYYCAVLFSDDAYYAYWGQGTQVTVSS”, “low polyreactivity”; that for “QVQLVESGGGLVQAGGSLRLSCAASGNIFRYYVMGWYRQAPGKEREFVAAITSSGGSTYYADSVKGRFTISRDNAKNTVYLQMNSLKPEDTAVYYCAKDYWDPGWAEYDYWGQGTQVTVSS”, “low polyreactivity”.
The result for “QVQLVESGGGLVQAGGSLRLSCAASGIIFLTNAMGWSRPAPAKERELVAAITAIGGSTYYADSVKGRFTISRDNAKNTVYLQMNSLKPEDTAVYYCAADFSYVYYLYDYWGQGTQVTVSS” reads “low polyreactivity”; that for “QVQLGESGGGLVQAGGSLRLSCAASGRIFWGYAMGWYRQAPGKERELVAAITRGTRTNYADSVKGRFTISRDNAKNTVYLQMNSLKPEDTAVYYCAADYRDSYLFYYWGQGTQVTVSS”, “high polyreactivity”.
In the case of “QVQLVESGGGLVQAGGSLRLSCAASGFIFYRNTMGWYRQAPGKEREFVAAIRWRGGSSYYADSVKGRFTISRDNAKNTVYLQMNSLKPEDTAVYYCAADTRPGYSGFEYWGQGTQVTVSS”, the “polyreactivity (PSR sort gate)” value is reported as “high polyreactivity”.
In the case of “QVHLVQSGGGLVQAGGSLRLSCAASGRIFKFYAMGWYRQAPGKEMELVATISRGGSTYYADSVKGRFTISRDNAKNTVYLQMNSLKPEDTAVYYCAKQRERYYWFGAWSYDYWGQGTQVTVSS”, the “polyreactivity (PSR sort gate)” value is reported as “low polyreactivity”.
In the case of “QFQLVESGGGLVKAGGSLRLSCAASGLTNIYNARGWYRQAPGKERELVAAISGNGGDTYSADSVKGRFTISRDNAKNTVYLQMNSLKPEDTAVYYCAADYAYTPITWDEYWGQGTQVTVSS”, the “polyreactivity (PSR sort gate)” value was “low polyreactivity”.
The result for “QVQLVESGGGLVQAGGSLRLSCAASGFIIPYYAMGWYRQAPGKERELVAAISRSGGSTYYADSVKGRFTISRDNAKNTVYLQMHSLKPEDTAVYYCATRKGGTLYNYWGQGTQVTVSS” reads “high polyreactivity”; that for “QVQLVESRGGLVQAGGSLRLSCAASGSIFRSNGMGWYRQPPGTERELVAAIRTSGGSTNYADSVKGRFTISRDNAKNTVSLQMNSLKPEDTAVYYCNTRDRGLGMMEYWGQGTQVTVSS”, “low polyreactivity”; that for “QVQLVESGGGLVQAGGSLRLSCAASGRTFPSYAMGWYRQAPGKERELVAAITRGGSTNYADSVKGRFTISRDNAKNTVYLQMNSLKPEDTAVYYCAAARWRWQLARDDYWGEGTQVTVSS”, “high polyreactivity”.
With “QVQLVESGGGLVQAGGSLRLSCAASGSTFGVNAMGWYRQAPGKERELVAGISSGTSTYYADSVKGRFTISRDNAKNTVYLQMNSLKPEDTAVYYCATRWSYRYGYWGQGTQVTVSS”, the “polyreactivity (PSR sort gate)” value was “high polyreactivity”.

For the origin of these results see the nanobody polyreactivity screen of Harvey et al. (2022).
